Target: wild-type Savinase (Bacillus lentus protease of SEQ ID NO: 3) (Bacillus lentus) (UniProt P41362)
Experiment: cell-based or functional assay

Chain of UniProt P41362 (P41362 28-380, tags left off): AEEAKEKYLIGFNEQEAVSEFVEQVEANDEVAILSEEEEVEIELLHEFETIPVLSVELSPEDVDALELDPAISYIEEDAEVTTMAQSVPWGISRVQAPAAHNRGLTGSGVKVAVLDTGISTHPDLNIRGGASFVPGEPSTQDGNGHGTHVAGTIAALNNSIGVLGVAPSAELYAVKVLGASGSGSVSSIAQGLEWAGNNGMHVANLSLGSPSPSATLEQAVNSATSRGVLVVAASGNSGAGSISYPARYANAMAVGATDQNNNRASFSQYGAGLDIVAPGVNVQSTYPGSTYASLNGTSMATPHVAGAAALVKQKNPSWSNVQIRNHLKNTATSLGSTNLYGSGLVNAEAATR

- amount of released amplicon A (qPCR of DNA released from alpha-casein-coated microspheres by the expressed protease), compared to the amount released in the absence of ovoinhibitor: 68%
Substance: ovoinhibitor isolated from hen egg white (from UniProt P10184 69-517)
